We go through nine variants from publication PMC7547085, “Specific and direct modulation of the interaction between adhesion GPCR GPR56/ADGRG1 and tissue transglutaminase 2 using synthetic ligands” (Scientific Reports, 2020).

The chains are these.
B1: mouse full-length GPR56 (GPR56 FL), wild type, on HEK293T cells [mouse] / mouse tissue transglutaminase 2 C-terminal D3D4 domains (mTG2 D3D4) [modified: biotin on the AVI-tag; biotin on the AVI-tag] [mouse] (parent)
chain 1: TGVAMRIRVGDSMSMGNDFDVFAHIGNDTSETRECRLLLCARTVSYNGVLGPECGTEDINLTLDPYSENSIPLRILYEKYSGCLTESNLIKVRGLLIEPAANSYLLAERDLYLENPEIKIRVLGEPKQNRKLVAEVSLKNPLSDPLYDCIFTVEGAGLTKEQKSVEVSDPVPAGDLVKARVDLFPTDIGLHKLVVNFQCDKLKSVKGYRNVIIGPA
chain 2: GSPREDFRFCGQRNQTQQSTLHYDQSSEPHIFVWNTEETLTIRAPFLAAPDIPRFFPEPRGLYHFCLYWSRHTGRLHLRYGKHDYLLSSQASRLLCFQKQEQSLKQGAPLIATSVSSWQIPQNTSLPGAPSFIFSFHNAPHKVSHNASVDMCDLKKELQQLSRYLQHPQKAAKRPTAAFISQQLQSLESKLTSVSFLGDTLSFEEDRVNATVWKLPPTAGLEDLHIHSQKEEEQSEVQAYSLLLPRAVFQQTRGRRRDDAKRLLVVDFSSQALFQDKNSSQVLGEKVLGIVVQNTKVTNLSDPVVLTFQHQPQPKNVTLQCVFWVEDPASSSTGSWSSAGCETVSRDTQTSCLCNHLTYFAVLMVSSTEVEATHKHYLTLLSYVGCVISALACVFTIAAYLCSRRKSRDYTIKVHMNLLSAVFLLDVSFLLSEPVALTGSEAACRTSAMFLHFSLLACLSWMGLEGYNLYRLVVEVFGTYVPGYLLKLSIVGWGFPVFLVTLVALVDVNNYGPIILAVRRTPERVTYPSMCWIRDSLVSYVTNLGLFSLVFLFNLAMLATMVVQILRLRPHSQNWPHVLTLLGLSLVLGLPWALVFFSFASGTFQLVILYLFSIITSFQGFLIFLWYWSMRFQAQGGPSPLKNNSDSAKLPISSGSTSSSRI

This test covers variants of B1. Description: flow cytometry on cells. The conditions noted are these: with mouse tissue transglutaminase 2 C-terminal D3D4 domains (mTG2 D3D4) [modified: biotin on the AVI-tag, 5 nM TG2 D3D4 (tetramerized), GPR56 FL constructs expressed on HEK293T cells, n = 3, parent: 1, read off a plot. In general terms: Flow cytometry measures light scatter and fluorescence of single cells or particles in a stream.
For the variant chain 2 H64A Y68A S125A, the ratio to parent turned out to be 4.1.
The value for chain 2 H64A Y68A R79D was 0.2.
The value for chain 2 H64A Y68A was 0.22; that for chain 2 H64A was 0.64.
Regarding chain 2 Y68A, the ratio to parent stood at 0.33.
In the case of chain 2 L62D S125A, the ratio to parent worked out at 0.33.
The result for chain 2 S125A reads 8.7; that for chain 2 H64A S125A, 6.6; that for chain 2 L62D, 0.21.
